Consider 20 molecules from patent US20210388087A1.

To fix the notation:
B1: H183/L072 VH W33I (antibody, name in Kabat numbering, V domains shown)
VH: QVQLVESGGGLVQPGRSLRLSCAASGFTFSNAIMHWVRQAPGKGLEWVAQIKDKGNAYAAYYAPSVKGRFTISRDDSKNSIYLQMNSLKTEDTAVYYCHYVHYASASTVLPAFGVDAWGQGTTVTVSS
VL: DIVMTQSPLSLPVTPGEPASISCQASQELVHMNRNTYLHWYQQKPGQAPRLLIYKVSNRFPGVPDRFSGSGSGTDFTLKISRVEAEDVGVYYCAQGTSVPFTFGQGTKLEIK
B2: H183/L072 VH N53I (antibody, name in Kabat numbering, V domains shown)
VH: QVQLVESGGGLVQPGRSLRLSCAASGFTFSNAWMHWVRQAPGKGLEWVAQIKDKGIAYAAYYAPSVKGRFTISRDDSKNSIYLQMNSLKTEDTAVYYCHYVHYASASTVLPAFGVDAWGQGTTVTVSS
VL: DIVMTQSPLSLPVTPGEPASISCQASQELVHMNRNTYLHWYQQKPGQAPRLLIYKVSNRFPGVPDRFSGSGSGTDFTLKISRVEAEDVGVYYCAQGTSVPFTFGQGTKLEIK
B3: H183/L072 VH H35L (antibody, name in Kabat numbering, V domains shown)
VH: QVQLVESGGGLVQPGRSLRLSCAASGFTFSNAWMLWVRQAPGKGLEWVAQIKDKGNAYAAYYAPSVKGRFTISRDDSKNSIYLQMNSLKTEDTAVYYCHYVHYASASTVLPAFGVDAWGQGTTVTVSS
VL: DIVMTQSPLSLPVTPGEPASISCQASQELVHMNRNTYLHWYQQKPGQAPRLLIYKVSNRFPGVPDRFSGSGSGTDFTLKISRVEAEDVGVYYCAQGTSVPFTFGQGTKLEIK
B4: H183/L072 VH Y55I (antibody, name in Kabat numbering, V domains shown)
VH: QVQLVESGGGLVQPGRSLRLSCAASGFTFSNAWMHWVRQAPGKGLEWVAQIKDKGNAIAAYYAPSVKGRFTISRDDSKNSIYLQMNSLKTEDTAVYYCHYVHYASASTVLPAFGVDAWGQGTTVTVSS
VL: DIVMTQSPLSLPVTPGEPASISCQASQELVHMNRNTYLHWYQQKPGQAPRLLIYKVSNRFPGVPDRFSGSGSGTDFTLKISRVEAEDVGVYYCAQGTSVPFTFGQGTKLEIK
B5: H183/L072 VH D52aM (antibody, name in Kabat numbering, V domains shown)
VH: QVQLVESGGGLVQPGRSLRLSCAASGFTFSNAWMHWVRQAPGKGLEWVAQIKMKGNAYAAYYAPSVKGRFTISRDDSKNSIYLQMNSLKTEDTAVYYCHYVHYASASTVLPAFGVDAWGQGTTVTVSS
VL: DIVMTQSPLSLPVTPGEPASISCQASQELVHMNRNTYLHWYQQKPGQAPRLLIYKVSNRFPGVPDRFSGSGSGTDFTLKISRVEAEDVGVYYCAQGTSVPFTFGQGTKLEIK
B6: H183/L072 VH D52aL (antibody, name in Kabat numbering, V domains shown)
VH: QVQLVESGGGLVQPGRSLRLSCAASGFTFSNAWMHWVRQAPGKGLEWVAQIKLKGNAYAAYYAPSVKGRFTISRDDSKNSIYLQMNSLKTEDTAVYYCHYVHYASASTVLPAFGVDAWGQGTTVTVSS
VL: DIVMTQSPLSLPVTPGEPASISCQASQELVHMNRNTYLHWYQQKPGQAPRLLIYKVSNRFPGVPDRFSGSGSGTDFTLKISRVEAEDVGVYYCAQGTSVPFTFGQGTKLEIK
B7: H183/L072 VH D52aI (antibody, name in Kabat numbering, V domains shown)
VH: QVQLVESGGGLVQPGRSLRLSCAASGFTFSNAWMHWVRQAPGKGLEWVAQIKIKGNAYAAYYAPSVKGRFTISRDDSKNSIYLQMNSLKTEDTAVYYCHYVHYASASTVLPAFGVDAWGQGTTVTVSS
VL: DIVMTQSPLSLPVTPGEPASISCQASQELVHMNRNTYLHWYQQKPGQAPRLLIYKVSNRFPGVPDRFSGSGSGTDFTLKISRVEAEDVGVYYCAQGTSVPFTFGQGTKLEIK
B8: H183/L072 VH N31M (antibody, name in Kabat numbering, V domains shown)
VH: QVQLVESGGGLVQPGRSLRLSCAASGFTFSMAWMHWVRQAPGKGLEWVAQIKDKGNAYAAYYAPSVKGRFTISRDDSKNSIYLQMNSLKTEDTAVYYCHYVHYASASTVLPAFGVDAWGQGTTVTVSS
VL: DIVMTQSPLSLPVTPGEPASISCQASQELVHMNRNTYLHWYQQKPGQAPRLLIYKVSNRFPGVPDRFSGSGSGTDFTLKISRVEAEDVGVYYCAQGTSVPFTFGQGTKLEIK
B9: H183/L072 VH H35I (antibody, name in Kabat numbering, V domains shown)
VH: QVQLVESGGGLVQPGRSLRLSCAASGFTFSNAWMIWVRQAPGKGLEWVAQIKDKGNAYAAYYAPSVKGRFTISRDDSKNSIYLQMNSLKTEDTAVYYCHYVHYASASTVLPAFGVDAWGQGTTVTVSS
VL: DIVMTQSPLSLPVTPGEPASISCQASQELVHMNRNTYLHWYQQKPGQAPRLLIYKVSNRFPGVPDRFSGSGSGTDFTLKISRVEAEDVGVYYCAQGTSVPFTFGQGTKLEIK
B10: H183/L072 VH H35M (antibody, name in Kabat numbering, V domains shown)
VH: QVQLVESGGGLVQPGRSLRLSCAASGFTFSNAWMMWVRQAPGKGLEWVAQIKDKGNAYAAYYAPSVKGRFTISRDDSKNSIYLQMNSLKTEDTAVYYCHYVHYASASTVLPAFGVDAWGQGTTVTVSS
VL: DIVMTQSPLSLPVTPGEPASISCQASQELVHMNRNTYLHWYQQKPGQAPRLLIYKVSNRFPGVPDRFSGSGSGTDFTLKISRVEAEDVGVYYCAQGTSVPFTFGQGTKLEIK
B11: H183/L072 VH I51P (antibody, name in Kabat numbering, V domains shown)
VH: QVQLVESGGGLVQPGRSLRLSCAASGFTFSNAWMHWVRQAPGKGLEWVAQPKDKGNAYAAYYAPSVKGRFTISRDDSKNSIYLQMNSLKTEDTAVYYCHYVHYASASTVLPAFGVDAWGQGTTVTVSS
VL: DIVMTQSPLSLPVTPGEPASISCQASQELVHMNRNTYLHWYQQKPGQAPRLLIYKVSNRFPGVPDRFSGSGSGTDFTLKISRVEAEDVGVYYCAQGTSVPFTFGQGTKLEIK
B12: H183/L072 VH A57L (antibody, name in Kabat numbering, V domains shown)
VH: QVQLVESGGGLVQPGRSLRLSCAASGFTFSNAWMHWVRQAPGKGLEWVAQIKDKGNAYALYYAPSVKGRFTISRDDSKNSIYLQMNSLKTEDTAVYYCHYVHYASASTVLPAFGVDAWGQGTTVTVSS
VL: DIVMTQSPLSLPVTPGEPASISCQASQELVHMNRNTYLHWYQQKPGQAPRLLIYKVSNRFPGVPDRFSGSGSGTDFTLKISRVEAEDVGVYYCAQGTSVPFTFGQGTKLEIK
B13: H183/L072 VH N53M (antibody, name in Kabat numbering, V domains shown)
VH: QVQLVESGGGLVQPGRSLRLSCAASGFTFSNAWMHWVRQAPGKGLEWVAQIKDKGMAYAAYYAPSVKGRFTISRDDSKNSIYLQMNSLKTEDTAVYYCHYVHYASASTVLPAFGVDAWGQGTTVTVSS
VL: DIVMTQSPLSLPVTPGEPASISCQASQELVHMNRNTYLHWYQQKPGQAPRLLIYKVSNRFPGVPDRFSGSGSGTDFTLKISRVEAEDVGVYYCAQGTSVPFTFGQGTKLEIK
B14: H183/L072 VH Q50P (antibody, name in Kabat numbering, V domains shown)
VH: QVQLVESGGGLVQPGRSLRLSCAASGFTFSNAWMHWVRQAPGKGLEWVAPIKDKGNAYAAYYAPSVKGRFTISRDDSKNSIYLQMNSLKTEDTAVYYCHYVHYASASTVLPAFGVDAWGQGTTVTVSS
VL: DIVMTQSPLSLPVTPGEPASISCQASQELVHMNRNTYLHWYQQKPGQAPRLLIYKVSNRFPGVPDRFSGSGSGTDFTLKISRVEAEDVGVYYCAQGTSVPFTFGQGTKLEIK
B15: H183/L072 VH H35P (antibody, name in Kabat numbering, V domains shown)
VH: QVQLVESGGGLVQPGRSLRLSCAASGFTFSNAWMPWVRQAPGKGLEWVAQIKDKGNAYAAYYAPSVKGRFTISRDDSKNSIYLQMNSLKTEDTAVYYCHYVHYASASTVLPAFGVDAWGQGTTVTVSS
VL: DIVMTQSPLSLPVTPGEPASISCQASQELVHMNRNTYLHWYQQKPGQAPRLLIYKVSNRFPGVPDRFSGSGSGTDFTLKISRVEAEDVGVYYCAQGTSVPFTFGQGTKLEIK
B16: H183/L072 VH W33P (antibody, name in Kabat numbering, V domains shown)
VH: QVQLVESGGGLVQPGRSLRLSCAASGFTFSNAPMHWVRQAPGKGLEWVAQIKDKGNAYAAYYAPSVKGRFTISRDDSKNSIYLQMNSLKTEDTAVYYCHYVHYASASTVLPAFGVDAWGQGTTVTVSS
VL: DIVMTQSPLSLPVTPGEPASISCQASQELVHMNRNTYLHWYQQKPGQAPRLLIYKVSNRFPGVPDRFSGSGSGTDFTLKISRVEAEDVGVYYCAQGTSVPFTFGQGTKLEIK
B17: H183/L072 VH W33M (antibody, name in Kabat numbering, V domains shown)
VH: QVQLVESGGGLVQPGRSLRLSCAASGFTFSNAMMHWVRQAPGKGLEWVAQIKDKGNAYAAYYAPSVKGRFTISRDDSKNSIYLQMNSLKTEDTAVYYCHYVHYASASTVLPAFGVDAWGQGTTVTVSS
VL: DIVMTQSPLSLPVTPGEPASISCQASQELVHMNRNTYLHWYQQKPGQAPRLLIYKVSNRFPGVPDRFSGSGSGTDFTLKISRVEAEDVGVYYCAQGTSVPFTFGQGTKLEIK
B18: H183/L072 VH K52I (antibody, name in Kabat numbering, V domains shown)
VH: QVQLVESGGGLVQPGRSLRLSCAASGFTFSNAWMHWVRQAPGKGLEWVAQIIDKGNAYAAYYAPSVKGRFTISRDDSKNSIYLQMNSLKTEDTAVYYCHYVHYASASTVLPAFGVDAWGQGTTVTVSS
VL: DIVMTQSPLSLPVTPGEPASISCQASQELVHMNRNTYLHWYQQKPGQAPRLLIYKVSNRFPGVPDRFSGSGSGTDFTLKISRVEAEDVGVYYCAQGTSVPFTFGQGTKLEIK
B19: H183/L072 VH N53L (antibody, name in Kabat numbering, V domains shown)
VH: QVQLVESGGGLVQPGRSLRLSCAASGFTFSNAWMHWVRQAPGKGLEWVAQIKDKGLAYAAYYAPSVKGRFTISRDDSKNSIYLQMNSLKTEDTAVYYCHYVHYASASTVLPAFGVDAWGQGTTVTVSS
VL: DIVMTQSPLSLPVTPGEPASISCQASQELVHMNRNTYLHWYQQKPGQAPRLLIYKVSNRFPGVPDRFSGSGSGTDFTLKISRVEAEDVGVYYCAQGTSVPFTFGQGTKLEIK
B20: H183/L072 VH A32P (antibody, name in Kabat numbering, V domains shown)
VH: QVQLVESGGGLVQPGRSLRLSCAASGFTFSNPWMHWVRQAPGKGLEWVAQIKDKGNAYAAYYAPSVKGRFTISRDDSKNSIYLQMNSLKTEDTAVYYCHYVHYASASTVLPAFGVDAWGQGTTVTVSS
VL: DIVMTQSPLSLPVTPGEPASISCQASQELVHMNRNTYLHWYQQKPGQAPRLLIYKVSNRFPGVPDRFSGSGSGTDFTLKISRVEAEDVGVYYCAQGTSVPFTFGQGTKLEIK

Sequence of Human CD137 ECD (human) (chain, as listed by the source limits assumed): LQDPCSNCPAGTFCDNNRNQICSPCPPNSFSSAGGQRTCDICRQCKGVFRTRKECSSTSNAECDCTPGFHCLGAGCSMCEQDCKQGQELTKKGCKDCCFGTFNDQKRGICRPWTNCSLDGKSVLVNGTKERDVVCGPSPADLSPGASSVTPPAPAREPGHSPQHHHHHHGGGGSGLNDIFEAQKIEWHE

This assay has as its target Human CD137 ECD (human). In words: single mutant vs template dBBDu183H.
Take B1: the fold change of affinity came to 0 fold.
Under B2 stands 0 fold; under B3, 0 fold; under B4, 0 fold.
Consider B5, for which the fold change of affinity is 0 fold.
B6: the fold change of affinity turned out to be 0 fold.
On to B7, for which the fold change of affinity turned out to be 0 fold.
As to B8, the fold change of affinity was 0 fold.
For the molecule B9, the fold change of affinity came out at 0 fold.
Turning to B10, the fold change of affinity worked out at 0 fold.
Turning to B11, the fold change of affinity was 0 fold.
Turning to B12, the fold change of affinity was 0 fold.
For B13 the value was 0 fold; for B14, 0 fold.
B15: the fold change of affinity was 0 fold.
Regarding B16, the fold change of affinity was determined as 0 fold.
For B17, the fold change of affinity stood at 0 fold.
Take B18: the fold change of affinity worked out at 0 fold.
In the case of B19, the fold change of affinity is 0 fold.
B20: the fold change of affinity is 0 fold.
